{"source": "patent US5834597", "key": {"[1]": {"biological_target": "human CD3 antigen on T cells (human)", "test": "competition with 125I-labelled mouse M291 on IL-2-activated human T cells, method of Berzofsky and Berkower"}, "[2]": {"biological_target": "human CD3 antigen on T cells (human)", "test": "flow cytometry competition on human T cells, FITC-conjugated murine OKT3 as tracer"}}}
{"molecule": "humanized M291 IgG1 (from UniProt P01857-1) (antibody)", "values": [{"measurement": "Ka", "setting": "[1]", "result": "1.6e+09", "unit": "M⁻¹"}]}
{"molecule": "chimeric OKT3 IgG2 (from UniProt P01859-1) (antibody)", "values": [{"measurement": "specific lysis of 51Cr-labeled K562 cells by retargeted T cell blasts (reverse lysis)", "setting": "FcRII", "result": "< 32", "unit": "%"}, {"measurement": "avidity, fold compared to that of the chimeric IgG1", "setting": "[2]", "result": "2 to 3", "unit": "fold"}]}
{"molecule": "mouse M291 antibody (antibody, V domains shown) VH: QVQLQQSGAELARPGASVKMSCKASGYTFISYTMHWVKQRPGQGLEWIGYINPRSGYTHYNQKLKDKATLTADKSSSSAYMQLSSLTSEDSAVYYCARSAYYDYDGFAYWGQGTLVTVSA VL: QIVLTQSPAIMSASPGEKVTMTCSASSSVSYMNWYKQKSGTSPKRWTYDTSKLASGVPARFSGSGSGTSYSLTISSMEAEDAATYYCQQWSSNPPTFGSGTKLEIK", "values": [{"measurement": "Ka", "setting": "[1]", "result": "1.6e+09", "unit": "M⁻¹"}]}
